Measured values from patent US9126993B2, “Glucosylceramide synthase inhibitors” (GENZYME CORPORATION, priority 2011, dated 2015).
Entries after “also recorded” stand apart in the source; their conditions may differ.

How the values were obtained:
Fabry mice [1] = experiment: Substrate reduction therapy in Fabry mouse model: Gb3 and lyso-Gb3 levels; type: in vivo; conditions: Fabry mice, in diet for 4 months starting at 8 months old; GZ 452 60 mg/kg/day, GZ 638 300 mg/kg/day
Protocol: In the following experiments, mice dosed with GCS inhibitors at either ˜60 mg/kg/day of (S)-Quinuclidin-3-yl(2-(2-(4-fluorophenyl)thiazol-4-yl)propan-2-yl)carbamate (S)-2-hydroxysuccinate salt (hereinafter “GZ 452”) or ˜300 mg/kg/day of (1R,2R)-Octanoic acid[2-(2′,3′-dihydro-benzo[1,4] dioxin-6′-yl)-2-hydroxy-1-pyrrolidin-1-ylmethyl-ethyl]-amide-L-tartaric acid salt (hereinafter “GZ 638”) as a component of the pelleted food diet provided ad libitum. Lipid analysis was by ESI/MS as described in Marshall et al., PLoS ONE 5:e15033 (2010). As discussed in further detail below, treatment started when the mice were 3, 8 or 12 months of age to test the efficacy at different disease severities. Blood and urine was collected monthly and periodic tissue harvests provided materials to evaluate efficacy of the therapy (Gb3 and lyso-Gb3 levels). […] As further discussed below, the efficacy of SMT was affected by the age of the mice at the start of treatment. Generally, the older the mouse, the higher the levels of Gb3 stored and thus a longer period of treatment was required in order to affect similar therapeutic benefit (see FIG. 4). The experiments and results are described further below.
In this experiment, Fabry mice were treated with GCS inhibitors in their diet for 4 months starting at 8 months old. […] Age-matched wild-type levels (WT) are also shown. […]

Fabry mice [2] = experiment: Combination therapy (ERT + SRT) in Fabry mouse model: plasma and urine Gb3 and lyso-Gb3; type: in vivo; conditions: Fabry mice treated 2 months from 3 months of age; ERT 1 mg/kg iv every 2 months; SRT GZ 452 ~60 mg/kg/day in diet
Description: Fabry mice were used to test the in vivo efficacy of combining enzyme replacement therapy with small molecule therapy in a concurrent treatment format. The study was designed to evaluate whether substrate inhibition (i.e. “substrate reduction therapy”) using the GZ 452 compound could reduce re-accumulation of the storage material Gb3 and lyso-Gb3. The study protocol called for three distinct treatment groups of 3 month old male Fabry mice (FIG. 6A). The first group received intravenous injections of alpha-galactosidase A enzyme (ERT) at 1 mg/kg to reduce Gb3 levels and was repeated every 2 months. The second group received the same enzyme injections as group 1, but also were dosed with GZ 452 at ˜60 mg/kg/day as a component of the pelleted diet. The third group received only the daily dosing of GZ 452 in their diet. A fourth group received no treatment to serve as vehicle controls and a fifth group of wild-type animals provided ‘normal’ Gb3 and lyso-Gb3 values. Monthly urine and blood collections and three monthly tissue harvests provide materials to evaluate relative efficacy of the therapies (FIG. 6A).
After 2 months (mice were 5 months old), plasma (FIG. 6B, panels A and C) and urine (FIG. 6B, panels B & D) were analyzed for Gb3 (FIG. 6B, panels A and B) and lyso-Gb3 (FIG. 6B, panels C and D). […] SMT therapy alone or in combination with ERT was also capable of affecting (reducing accumulation) of lyso-Gb3.

Fabry mice [3] = experiment: Thermal nociceptive response (55° C. hotplate) in Fabry mice; type: in vivo, mouse; conditions: 10 month old Fabry mice after 7 months of treatment
Protocol: Three month old Fabry mice were treated with GZ 452 in their diet (SRT), αgal once every 2 months (ERT), or a combination of the 2 treatments (E+S), as described above. […]

K14 mice = conditions: neonatal (P1-P3) intracerebroventricular injections, previous experiments (Cabrera-Salazar et al. 2010); cited from earlier work

For “(1R,2R)-Octanoic acid[2-(2′,3′-dihydro-benzo[1,4] dioxin-6′-yl)-2-hydroxy-1-pyrrolidin-1-ylmethyl-ethyl]-amide-L-tartaric acid salt [GZ 638, reference compound]”, the “Gb3 in visceral tissue (kidney, heart) relative to the starting levels” value (Fabry mice [1]) was “effective at inhibiting further accumulation of tissue Gb3”.

B1: ERT: alpha-galactosidase A enzyme (ERT), intravenous injections at 1 mg/kg every 2 months (protein, UniProt P06280 32-429, looked up)
Alpha-galactosidase A: LDNGLARTPTMGWLHWERFMCNLDCQEEPDSCISEKLFMEMAELMVSEGWKDAGYEYLCIDDCWMAPQRDSEGRLQADPQRFPHGIRQLANYVHSKGLKLGIYADVGNKTCAGFPGSFGYYDIDAQTFADWGVDLLKFDGCYCDSLENLADGYKHMSLALNRTGRSIVYSCEWPLYMWPFQKPNYTEIRQYCNHWRNFADIDDSWKSIKSILDWTSFNQERIVDVAGPGGWNDPDMLVIGNFGLSWNQQVTQMALWAIMAAPLFMSNDLRHISPQAKALLQDKDVIAINQDPLGKQGYQLRQGDNFEVWERPLSGLAWAVAMINRQEIGGPRSYTIAVASLGKGVACNPACFITQLLPVKRKLGFYEWTSRLRSHINPTGTVLLQLENTMQMSLKDLL
For B1, the “plasma Gb3 level” value (Fabry mice [2]) was “to a greater extent than SMT; also recorded: reduced”, the “plasma lyso-Gb3 level” value (Fabry mice [2]) was “reduced” and the “urine Gb3 level” value (Fabry mice [2]) was “unaffected”. For the same molecule, the “thermal nociceptive response time (latency) vs untreated” value (Fabry mice [3]) was “not significantly different to the untreated group”.

B2: GC: Recombinant human glucocerebrosidase (rhGC), reformulated for ICV administration (protein, UniProt P04062 40-536, looked up)
Lysosomal acid …: ARPCIPKSFGYSSVVCVCNATYCDSFDPPTFPALGTFSRYESTRSGRRMELSMGPIQANHTGTGLLLTLQPEQKFQKVKGFGGAMTDAAALNILALSPPAQNLLLKSYFSEEGIGYNIIRVPMASCDFSIRTYTYADTPDDFQLHNFSLPEEDTKLKIPLIHRALQLAQRPVSLLASPWTSPTWLKTNGAVNGKGSLKGQPGDIYHQTWARYFVKFLDAYAEHKLQFWAVTAENEPSAGLLSGYPFQCLGFTPEHQRDFIARDLGPTLANSTHHNVRLLMLDDQRLLLPHWAKVVLTDPEAAKYVHGIAVHWYLDFLAPAKATLGETHRLFPNTMLFASEACVGSKFWEQSVRLGSWDRGMQYSHSIITNLLYHVVGWTDWNLALNPEGGPNWVRNFVDSPIIVDITKDTFYKQPMFYHLGHFSKFIPEGSQRVGLVASQKNDLDAVALMHPDGSAVVVVLNRSSKDVPLTIKDPAVGFLETISPGYSIHTYLWRRQ
In the case of B2, the median survival (K14 mice) is given as 23 days.
